Measured values: patent publication US20260226440

Experiments:
Assay in all cases: cell_activity
[1] = test system: T1, Type V CRISPR nuclease (8218); details: indels in HEK293T; PAM 5'-TTTC-3'; reference
T1 sequence: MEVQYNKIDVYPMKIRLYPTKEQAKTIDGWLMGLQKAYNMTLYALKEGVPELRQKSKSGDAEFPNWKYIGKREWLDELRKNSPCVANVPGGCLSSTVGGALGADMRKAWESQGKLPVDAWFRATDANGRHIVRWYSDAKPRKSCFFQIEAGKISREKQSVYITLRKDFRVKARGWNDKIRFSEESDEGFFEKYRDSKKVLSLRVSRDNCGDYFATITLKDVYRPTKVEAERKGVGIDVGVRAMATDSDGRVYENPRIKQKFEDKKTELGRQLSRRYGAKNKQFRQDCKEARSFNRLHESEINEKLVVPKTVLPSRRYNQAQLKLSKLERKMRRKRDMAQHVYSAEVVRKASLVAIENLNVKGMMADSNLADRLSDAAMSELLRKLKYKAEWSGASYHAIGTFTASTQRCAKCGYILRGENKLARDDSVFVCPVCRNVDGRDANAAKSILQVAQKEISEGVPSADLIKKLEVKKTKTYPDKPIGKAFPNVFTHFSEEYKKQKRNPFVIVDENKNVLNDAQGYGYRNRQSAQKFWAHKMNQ

[2] = test system: Type V nuclease-mutMMLV RT fusion; details: HEK293T
[3] = target: nuclease-RT fusion N127R N127R (numbering of SEQ ID NO: 1) (UniProt P03355); details: HEK293T; PAM TTTC; average ratio, EMX1 and VEGFA tested; RT editing ratio 1.507
[4] = target: nuclease-RT fusion S136G S136G (numbering of SEQ ID NO: 1) (UniProt P03355); details: HEK293T; PAM TTTC; average ratio, EMX1 and VEGFA tested; RT editing ratio 1.907
[5] = test system: nuclease-RT fusion E328R E328R (numbering of SEQ ID NO: 1); details: HEK293T; PAM TTTC; loss of activity; average ratio, EMX1 and VEGFA tested; RT editing ratio 0.173
[6] = test system: nuclease-RT fusion D137R D137R (numbering of SEQ ID NO: 1); details: HEK293T; PAM TTTC; average ratio, EMX1 and VEGFA tested; RT editing ratio 1.392
[7] = test system: nuclease-RT fusion A138R A138R (numbering of SEQ ID NO: 1); details: HEK293T; PAM TTTC; average ratio, EMX1 and VEGFA tested; RT editing ratio 1.266
[8] = target: nuclease-RT fusion D137G D137G (numbering of SEQ ID NO: 1) (UniProt P03355); details: HEK293T; PAM TTTC; average ratio, EMX1 and VEGFA tested; RT editing ratio 1.665
[9] = target: nuclease-RT fusion D237G D237G (numbering of SEQ ID NO: 1) (UniProt P03355); details: HEK293T; PAM TTTC; loss of activity; average ratio, EMX1 and VEGFA tested; RT editing ratio 0.038
[10] = target: nuclease-RT fusion D125G D125G (numbering of SEQ ID NO: 1) (UniProt P03355); details: HEK293T; PAM TTTC; average ratio, EMX1 and VEGFA tested; RT editing ratio 1.436
[11] = target: nuclease-RT fusion S205G S205G (numbering of SEQ ID NO: 1) (UniProt P03355); details: HEK293T; PAM TTTC; average ratio, EMX1 and VEGFA tested; RT editing ratio 1.654
[12] = test system: nuclease-RT fusion R250G R250G (numbering of SEQ ID NO: 1); details: HEK293T; PAM TTTC; loss of activity; average ratio, EMX1 and VEGFA tested; RT editing ratio 0.022

“GUGAGGUGCAGCCACGAGGUGCGAAUAGGAAGUACGCAGCAAUGUGCUGAAUCGUUCGCACGAAAAUUGGCAUUUUUGAAAACCAAAGCCAAUAAUCAUAUCCAUAAAUAUGUGUGGUUAUGAACUGCAAGUGUUGCCCUCAUAACUUAUC / TGTTGCCCTCATAACTTATC / GATAAGTTATGAGGGCAACA [parent sgRNA EMX1 ; EMX1 target]” showed an activity (relative to parent) [1] of 1.
Work on “CACCGCCGUCAUCAACAUUGCCUUUCUGUUGCCCAGUAAACUUAUCAUACGGAGCCAGGCUAUAUAAUUAGCUACUUCUCGUGAGGUGCAGCCACGAGGUGCGAAAGUACGCCGCAAUGUGCGGAAUUCGCACGAAAGUUGGCGGAUUUCUUCGGAAAUCGAGCCAAUAACCAUCUCCAUAAAUAUGUGUGGUGAUGGACUGCAAGUGUUGCCCUCAUAACUUAUCUUUUUUGCG / TGTTGCCCTCATAACTTATC / GATAAGTTATGAGGGCAACA” yielded an activity ([2]; PAM TTTC, precise editing 0.249%) of 14.6 % indel.
Work on “CACCGUGUCAGGCCUGCUAGUCAGCCACAGUUUGGGGAAAGCUGUGCAGCCUGUAACCCCCCCAGGAGAAGCUGGGAAAAAUGAGGAUGUAGUCACGGAUUCAUUAUCAGGUUCUGGCUGCAGGGUGCCUGAUCUGUGCCAGGGUUAAGCAUGCUGGUGAGGUGCAGCCACGAGGUGCGAAAGUACGCCGCAAUGUGCGGAAUUCGCACGAAAGUUGGCGGAUUUCUUCGGAAAUCGAGCCAAUAACCAUCUCCAUAAAUAUGUGUGGUGAUGGACUGCAAGAUUAUCAGCAAGUGGCUGCAUUUUUUGCG / ATTATCAGCAAGTGGCTGCA / TGCAGCCACTTGCTGATAAT” yielded an activity ([2]; PAM ATTC (inferred from RTT), precise editing 1.993%) of 7.64 % indel.
With “UGUCAGGCCUGCUAGUCAGCCACAGUUUGGGGAAAGCUGUGCAGCCUGUAACCCCCCCAGGAGAAGCUGGGAAAAACCGUCAUCAACAUUGCCUUUCUGUUGCCCAGUAAACUUAUCAUACGGAGCCAGGCUAUAUAAUUAGCUACUUCUCCGUGAGGUGCAGCCACGAGGUGCGAAAGUACGCAGCAAUGUGCUGAAUUCGCACGAAAGUUGGCGGAUUUCUUCGGAAAUCGAGCCAAUAAUCAUAUCCAUAUUAUCUGCGGAUGGAUGUGAACUGCAAGUGUUGCCCUCAUAACUUAUC / TGTTGCCCTCATAACTTATC / GATAAGTTATGAGGGCAACA [Table 7 editing template RNA 1 (EMX1) ; EMX1 target]” the indel ratio to WT (indel ratio to WT) [3] was 2.7, the indel ratio to WT (indel ratio to WT) [4] was 3.18 and the indel ratio to WT (indel ratio to WT) [5] was 0.0299. It also gave an indel ratio to WT (indel ratio to WT) [6] of 2.13, an indel ratio to WT (indel ratio to WT) [7] of 2.77 and an indel ratio to WT (indel ratio to WT) [8] of 2.8. It also gave an indel ratio to WT (indel ratio to WT) [9] of 0.00343, an indel ratio to WT (indel ratio to WT) [10] of 2.83 and an indel ratio to WT (indel ratio to WT) [11] of 2.53. For the same sequence, the indel ratio to WT (indel ratio to WT) [12] was 0.00013.
Sequence “CACCGUGUCAGGCCUGCUAGUCAGCCACAGUUUGGGGAAAGCUGUGCAGCCUGUAACCCCCCCAGGAGAAGCUGGGAAAAACCGUCAUCAACAUUGCCUUUCUGUUGCCCAGUAAACUUAUCAUACGGAGCCAGGCUAUAUAAUUAGCUACUUCUCCGUGAGGUGCAGCCACGAGGUGCGAAAGUACGCCGCAAUGUGCGGAAUUCGCACGAAAGUUGGCGGAUUUCUUCGGAAAUCGAGCCAAUAAGCAUAUCCAUAUUAUCUGCGGAUGGAUGUGCACUGCAAGUGUUGCCCUCAUAACUUAUCUUUUUUGCG / TGTTGCCCTCATAACTTATC / GATAAGTTATGAGGGCAACA [sgRNA_C16_xrRNA_EMX1_TTTC editing template RNA ; EMX1 target]” has an activity ([2]; PAM TTTC, precise editing 1.678%) of 10.7 % indel.
